Assays:
RBD-mFc = RBD-mFc (SARS-CoV-2, UniProt P0DTC2); assay: BLI
S1-hFc = S1-hFc (SARS-CoV-2); assay: BLI

B1: RBD-1-2G(NCATS-BL8125) (VHH)
VHH: EVQLVESGGGLVQPGGSLRLSCAASGFSSIVYMGWFRQAPGKGRELVAAIDASGSTTNYPDSVEGRFTISRDNAKRMVYLQMNSLRAEDTAVYYCAIAYFTSPEYVVSQGWGQGTQVTVSS
koff (RBD-mFc): 0.00024 s⁻¹
koff (S1-hFc): 0.0002 s⁻¹

From article PMC9365158 (2022)
